{
  "source": "patent US7951210B2",
  "about": "“Support-colouring means” (Doublet Luc, priority 2004, dated 2011)",
  "key": {"[1]": {"experiment": "Inhibition of the oxidation of ABTS by NPE-hemoglobin conjugates (microtitration plate, H2O2)", "assay_type": "biochemical", "settings": "oxidation of ABTS 1 mM, H2O2 1 mM, sodium acetate buffer pH 5, before dialysis", "experimental": "Bovine hemoglobin in aqueous solution (32 μM) is treated with different concentrations of 1-(2-nitrophenyl)ethyldiazoethane (NPE-diazo) in solution in DMSO at 20° C. for 1 h in darkness. The final concentration of DMSO should not exceed 5%. The NPE-diazo concentrations vary from 50 to 100 equivalents with respect to the hemoglobin. The coupling reaction is halted by addition of a 100 mM acetate buffer solution at pH 4.4 (1 equivalent with respect to NPE-diazo). The contact times vary from 10 to 30 min. The reaction mixture is subsequently dialyzed against water, between 4 and 20° C., between 1 and 16 hours, against 1000 volumes of water. The conjugate is stored at 20° C.\nThe percentage of inhibition of the oxidation of ABTS [diammonium salt of 2,2′-azinobis(3-ethylbenzothiazolinone-6-sulfonic acid), 1 mM] is determined before dialysis on 96-well microtitration plates (Costar, Corning Incorporated) in sodium acetate buffer, […], pH 5, in the presence of 1 mM of hydrogen peroxide. The number of molecules attached per hemoglobin molecule is determined by mass spectrometry (electrospray)."}, "[2]": {"experiment": "Restoration of the enzymatic activity (ABTS oxidation) after photolysis at 366 nm", "assay_type": "biochemical", "settings": "after irradiating for 30 min at 366 nm; ABTS 1 mM, H2O2 1 mM", "experimental": "The oxidation catalyst is reactivated by irradiation of the solutions of the various conjugates (1 mg/ml) in sodium acetate buffer (25 mM, pH 4.4). Photolysis takes place at 366 nm (100 W UV lamp, 7 mW/cm^2 at a distance of 30 cm); the irradiation times vary from 5 to 30 min. This stage is advantageously carried out in the presence of 5 mM of 2-ethanolamine in order to trap possible cross reactions between photolysis products and hemoglobin.\nThe restoration of the enzymatic activity is determined in microtitration plates as described above in the presence of ABTS (1 mM) and H2O2 (1 mM)."}},
  "data": [
    {"substance": "Hb-50: Bovine hemoglobin treated with 50 equivalents of 1-(2-nitrophenyl)ethyldiazoethane (NPE-diazo); NPE-hemoglobin conjugate", "values": [
      {"measurement": "Residual activity (%)", "setting": "[1]", "value": 12.6, "unit": "%"},
      {"measurement": "activity recovered after irradiation", "setting": "[2]", "value": 57, "unit": "%"}
    ]},
    {"substance": "Hb-75: Bovine hemoglobin treated with 75 equivalents of 1-(2-nitrophenyl)ethyldiazoethane (NPE-diazo); NPE-hemoglobin conjugate", "values": [
      {"measurement": "Residual activity (%)", "setting": "[1]", "value": 5.4, "unit": "%"},
      {"measurement": "activity recovered after irradiation", "setting": "[2]", "value": 28, "unit": "%"}
    ]},
    {"substance": "Hb-100: Bovine hemoglobin treated with 100 equivalents of 1-(2-nitrophenyl)ethyldiazoethane (NPE-diazo); NPE-hemoglobin conjugate", "values": [
      {"measurement": "Residual activity (%)", "setting": "[1]", "value": 2.5, "unit": "%"},
      {"measurement": "activity recovered after irradiation", "setting": "[2]", "value": 16, "unit": "%"}
    ]},
    {"substance": "Native hemoglobin: Untreated bovine hemoglobin, oxidation catalyst used as 100% activity reference [reference compound]", "values": [
      {"measurement": "Residual activity (%)", "setting": "[1]", "value": 100, "unit": "%"}
    ]}
  ]
}
